Laboratory results: the RNAGym collection of RNA variant scans (doi:10.1073/pnas.2313332121)
Variants at the floor of the assay were thinned out.

B1: TPR 5TU (parent)
chain: GGAUCUUCUCGAUCUAACAAAAAAGACAAAUCUGCCACAAAGCUUGAGAGCAUCUUCGGAUGCAGAGGCGGCAGCCUUCGGUGGCGCGAUAGCGCCAACGUUCUCAACUAUGACACGCAAAACGCGUGCUCCGUUGAAUGGAGUUUAUCAUG

Variants of: B1
Experiment: polymerase ribozyme fitness, log enrichment relative to wild type (log ratio); higher = more active; in vitro selection for triplet polymerase activity
In short: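 The heterodimeric triplet polymerase ribozyme's subunits were each mutagenized into PCR-built libraries and transcribed. Every library was selected once, in triplicate, by annealing with a biotinylated primer, the partner subunit and triplets, incubating frozen at −7 °C, gel-excising extended constructs, capturing on streptavidin beads and running RT-PCR. Input and output libraries were Illumina-sequenced, with genotypes kept only at ≥10 input reads and ≥1 read per output. Fitness, from inverse-variance-weighted replicate averages, is the base-2 logarithm of genotype enrichment over wild-type enrichment.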

Variant	polymerase ribozyme fitness (log ratio)
U15C A22G A47C U55A G88C U139C	≤ -4.2
U15C A22G	1.56
A16C A20C A39U G42C C76A C95A	≤ -4.2
U15G G46C C93A C95U	≤ -4.2
C14U U15C A23U A41U C85A	≤ -4.2
C14U C87A	≤ -4.2
C14U C87U	-2.18
U15G G84A C96A A119U	-2.08
U15A G48C G83U	-2.41
U15A G50U C95G C132G	≤ -4.2
U15A A21C A73G C95U U135G A138G U139C	≤ -4.2
A16C A113U C118G	-3.27
U15G U82C G94A	-1.01
U15G G48U C54U C123A G136U	-2.93
U15C C38A U61A C87U A122G	-2.73
U15A A19C A29U G50A C95U A142U	≤ -4.2
C14U C85U	-1.65
U15G A26U A52G G83A U102G	≤ -4.2
U15C C38U G86U A91U G126U U134G A142G	≤ -4.2
U15C C51A G86U	-1.6
U15G C72U C87A U134A A150C U151G	≤ -4.2
U15G C93A U109C	≤ -4.2
C14U A52C U56A A97U A98U	-4.07
U15G A39U U82G G84A G112U	≤ -4.2

Variant	polymerase ribozyme fitness (log ratio)
A16C A24G U56C U77C G86A U104G U139A A142G	≤ -4.2
U15G G46U G65A G68C C85U C116G	≤ -4.2
U15G U55G G71C C85U A142U C149U	≤ -4.2
C14U C63U C85A A115G	-3.56
U15G G42A C75A G83U A122U G128A	≤ -4.2
C14U G81A	-1.14
U15A A39G U53A A73U C85U G124U U134C U135C	≤ -4.2
U15C C36G	-3.28
A16C C36A G46C G68C C93U G112U A115C A122U G143U	≤ -4.2
C14U C85A G140A	≤ -4.2
U15G A20U C54U C85G G94U U104C	-2.12
U15C A26C C36U G84A A147U	-3.47
U15A A49U A73G U82G A107U	≤ -4.2
U15A A20G U44A A121C G136U	≤ -4.2
U15A C63U U151A	-3.9
C14U C32G U33G A47U U53A G74A C95G A106G U135A	≤ -4.2
U15A G50U C95U C99G C105U A115G A150C	≤ -4.2
C14U C18A A28U C54A A91G U148G	≤ -4.2
U15G A40G C96U A97G G141A	-3.18
A16C A17G C96G C118U	-1.74
U15G U56G U77C C87G G94A U104G A106U C123U	≤ -4.2
A16C A22U A89U C93U	-3.06
C14U A47C C54U G84A	-1.86
C14U G67A U151C	≤ -4.2

Variant	polymerase ribozyme fitness (log ratio)
U15G A22C A60G A73U C76G C103A A122U U151A	≤ -4.2
C14U C93U U127A C131A	≤ -4.2
U15A C36U C87U G124U A137C	-4.03
C14U C87U C99U U101G A137C U145G	≤ -4.2
A16C A26G C35A A52G C87U	-3.98
A16C A20C G84U A97U U130C	-4.17
U15G G34A C75A A150U	≤ -4.2
U15G G88A	-4.08
U15C A40U U53A G84C	-1.96
A16C G25C	-2.46
A16C A21G C54A C95A	-3.07
U15C G80C C93G C116G	-4.05
U15A A16G G58U C69G C85U A89U C96U C108U	≤ -4.2
U15C A19C A91U	-3.68
U15G A49C G50A U78A A91C C93A G126U	≤ -4.2
U15C C18U C85G C118U G136U	-3.19
U15G C27U G84A	-1.78
U15C C57G U82G G94A	0.771
C14U U144G	-0.898
U15A U145C	0.0727
A16C A26U	-2.62
U15C A22G G42A G84A G133U	≤ -4.2
C14U C105G	-3.25
C14U G83U G88C A147G	≤ -4.2

Variant	polymerase ribozyme fitness (log ratio)
U15G C18A A23C A60G U104G C123G	≤ -4.2
C14U C76A C87U	-3.49
U15A G50U G86A C114U	-3.13
A16C A73G G92A	-3.3
C14U C27G A37U A39G A66C U77A U78G C85U A89U C95G	≤ -4.2
C14U C54U G68C G84C C87G A91C A147C	≤ -4.2
U15G A22U U53A A121C A147C	0.0126
A16C A37C A40C C63U A64U C69G C76U G141C	≤ -4.2
C14U C57A A89G C96U U101A G136U	≤ -4.2
U15G A28U G46C C57U C85A G86U U90A C95U C105U	≤ -4.2
U15G A110G	-3.59
U15G A17C C27G C51A G59A C75U C87U	≤ -4.2
A16C G25U C36U G59C C93U U104G G140C	≤ -4.2
C14U G34U G68A C85U U144A C149A	≤ -4.2
U15C A21C G48C C93U U146G	-0.835
U15G C99U A142U	-1.77
U15G C35G G50C C96G G143U	≤ -4.2
U15A A21G C36G A60C C96A A147C	≤ -4.2
U15A C57A C76U G84C	-1.52
C14U U145A	-1.55
U15G A21C A49C C54U G86A	≤ -4.2
U15A A47C G48C G58C C125U G140A	≤ -4.2
U15G C18G G50C U53G G92A U148G	≤ -4.2
A16C A19U A73G C87A U148G G152U	≤ -4.2

Variant	polymerase ribozyme fitness (log ratio)
C14U C93A	-3.4
C14U G67A G88A G136U	≤ -4.2
C14U G50C	-3.52
C14U G50U	-1.15
U15G G94C C96U U111A G152A	≤ -4.2
C14U A47C G84A	-2.49
A16C A37U G58A G80U C85G C93G A150G	≤ -4.2
C14U C35U C85U A106G A115G	-3.81
U15A A142C	-0.894
U15G A39G U53A	-4.01
U15G C76G G86C A122U G133C A142G U148G	≤ -4.2
A16C C18G A22G C27U A52G U61A A73G C85A U127C U139C	≤ -4.2
C14U G50C U56G C69U C118U	≤ -4.2
U15G A17G C38A G62C G81A C85G	≤ -4.2
U15G C85U C87A	≤ -4.2
U15C A16C C85U C118A	-2.79
U15G A19U A20U A29G U56A C57A C63U G94A U145G	≤ -4.2
U15G G50C C95A C99U A120U	≤ -4.2
U15C A20G A97G G140A	-3.64
U15G C93U	-2.61
U15C U53A A98G C105G U146G	≤ -4.2
U15A C38A A41C C75U U135C	-3.63
A16C C57U A60G G86U C125U U134G	-4.12
U15G A73U C93U A120G	-2.43

Variant	polymerase ribozyme fitness (log ratio)
U15G A60G C87G C103G A147C	≤ -4.2
U15A A17C C32G A60G C99U C116U	≤ -4.2
U15G A47C G83C	-1.85
A16C A24G A73C A121G	≤ -4.2
U15G C54U A60U C75G A113G	≤ -4.2
C14U C76A C85U	-2.67
U15A A39C C123U A137C U151C	≤ -4.2
C14U C43U C72A G84A C93G C95G A142G U144A	≤ -4.2
U15A A22G C36A C72U C85U C132U	≤ -4.2
U15A G25A G42C C79A	≤ -4.2
A16C A150U	-0.0438
U15A U55A G88C U145G	-3.86
C14U U31A A64C C75A C93G C103U	≤ -4.2
U15G A20U G25U C87U C103G U104G A121G G126U U134C C149A	≤ -4.2
A16C C51U G84U U135A	-3.41
A16C A26U G42U A47C U55A U90G A98G	≤ -4.2
U15A G74U C79G	≤ -4.2
C14U G48A A64C U90C U102G C103G A115G A122G U127A A150C	≤ -4.2
U15G C57A G86U A122G	-1.4
A16C A17U A20U C38A C57U A60C G84A C116G	≤ -4.2
C14U C27G G94C G133U A150G	≤ -4.2
A16C A17G C57U G86A G133U	≤ -4.2
U15G A24C C35A A107U A147U	≤ -4.2
U15A C38U G58A U61G G68A G83A C87G A106C U145C	≤ -4.2

Variant	polymerase ribozyme fitness (log ratio)
C14U C79A G84A A150G	≤ -4.2
U15C A37U C118U	-0.404
U15G U77A U78G G88U C149G	≤ -4.2
U15G A37U U55A U56C C87G C95U A106G G136A U145G	≤ -4.2
C14U U56A	-1.8
U15C C57U G59A G68U G84C C129A	≤ -4.2
C14U C87U U102C	-4.18
C14U C72A C85G G133U	≤ -4.2
A16C A91C U101C	≤ -4.2
A16C A19U A73G C87A	≤ -4.2
A16C C85U A106U G126A	-3.28
U15A A39U C96U C114A A122G C123U C125A	-4.11
C14U C54U C57U C72U G83A	-4.05
U15A A26C	-1.44
U15G C116U	0.239
C14U U135C	-3.88
U15C A20G A21U A39U C76U C85A C103A C108U	≤ -4.2
U15G A28G A29U C36G A40G G94U U102C A122G U139G	≤ -4.2
U15C C75A C96G	≤ -4.2
U15C A47C C54U A89U C95G	-2.01
C14U C57G C85U G152A	-3.89
C14U G94A	-1.85
C14U G94C	-2.9
